Assay results: the DeepSol protein solubility set

Test: soluble on expression in E. coli; label from the status in PepcDB or PDB records

Row | Sequence | soluble on expression in E. coli
1 | MGSDKIHHHHHHMDPRLLEYYNRELSYLRETGAEFAARHPKVAARLGMQGTDIADPYVERMVEAFSFLTARTQLKIDAEFPRFTQRLLEVVSPNYVTPTPSMSVAQLHPDTEEGDLAKGFTVPRDTAFFSAIPEGESTACQFRSSQDVTLWPLAIEEARLTAAPPDMPALHRYLPANIHVAGALRITLRTFGELTFSQLAGLDRLPFYLCGEERTASHLLELLHTSAIAPLAGIPGHFDGALDVNLQQPVMYEGLEPDQGLLPLAWNVFHGHNLLHEYFACPERFYFFTPTGLSAGLQKIDGGVAEIVILLNRLPPDWLIHQTNAAQFSLFCTPVINLFPRVTARIDVTHSTTEQHLVVDRTHPLDYEVFSVQEVEGLETDTTRKMAFRPLYHTRNNDEGNHGRYFSLRREPRRLSENARRYGTRTPYTGSEVFLSLVDQYEAPYPENLRHITITAMVTNRDLPCLIARNGRDDLTVDAAIPVAGVGLIRPPRSPQPPMAEREMAWRLIRQLSFNYLPLADLDHRTGGQALRDLLNLFIPAHDSPQSRQVRSLIGCKTTPVTRRLPGSGLLVYGRGVSCELTVDEEGFSGISPYLFGLVLEHYIARHVSINTFSQMTLHSMQRGKIMTWPVRAGQRGSV | not soluble
2 | MSKGHSLQDPYLNTLRKERVPVSIYLVNGIKLQGQIESFDQFVILLKNTVSQMVYKHAISTVVPSRPVRLPSGDQPAEPGNA | soluble
3 | MERQVFIRLRHRLEADPDELILLGHIAQVAGDRGYKEKLERLPIYQVSKADQSMVVLDVMKVIEAVHKSFPDLDVQTVGGSETIVEIQYPKRDLSP | soluble
4 | MHHHHHHSSGRENLYFQGMWDQRLVRLALLQHLRAFYGIKVKGVRGQCDRRRHETAATEIGGKIFGVPFNALPHSAVPEYGHIPSFLVDACTSLEDHIHTEGLFRKSGSVIRLKALKNKVDHGEGCLSSAPPCDIAGLLKQFFRELPEPILPADLHEALLKAQQLGTEEKNKATLLLSCLLADHTVHVLRYFFNFLRNVSLRSSENKMDSSNLAVIFAPNLLQTSEGHEKMSSNTEKKLRLQAAVVQTLIDYASDIGRVPDFILEKIPAML | soluble
5 | PVGYFTMYRFNFKYPPFDNKKIRQAAMYAIGQEDVMKALVGNPKYWQTCASLWGCGTPFETDIGKDMVVPSNIEKARALLKEAGYDNTPILVMHATDVGTLSAQPVVMAQALRKAGFNVNLAAMDWQSVATRRASKAAPAQGGWNIHNTNWYATDIMDPVRSAPAAANGDNAWFGWPDIPEIEALRTRFALSSDPAEQKKLAEEAQRIGIDEGLYVPLGQMSVPTVYTTKLSGLVHAPVFAFWNVKKAP | not soluble
6 | MSLVMSGEKMKVIIVEDEFLAQQELSWLINTHSQMEIVGSFDDGLDVLKFLQHNKVDAIFLDINIPSLDGVLLAQNISQFAHKPFIVFITAWKEHAVEAFELEAFDYILKPYQESRIINMLQKLTTAWEQQNNAASGLASAAPRENDTINLIKDERIIVTSIHDIYYAEAHEKMTFVYTRRESFVMPMNITEEGHHHHHH | not soluble
7 | MAHHHHHHMVFNQDHHEKECADAFVLARDGMSDFEGEKIERAFRGVTAALRFLDYQETTGTSTRSPTGSNSNAEQRSSGSHEPLVSGEDTNYHHVVCLVRSLDGEKENTPVN | not soluble
8 | MYQASCLFYFMTPVFFLLSTYPRNLLIGDSSTAFTKELIAKMNEVTNSAESTSSKRPGRPRKDGHDEKIIDATLRLIDSNRPVTVNAVVKESGVSRAAVYRRWPGLVDLVAEALDAGRAPVEIDTSGDIKETLIDGLFTNQAKTTGVSYPRQRFRKRLELVMSDQELQLAAAALEHHHHHH | not soluble
9 | MSLNEESYLVNRGKGVVRYDVVQVPSNSPIEDDHAEKIVEVPASTSAANEGQSSSDWMFWAVFDGHSGWTTSAKLRNVLISYVARELNATYKSASSDPSLVLPSSEAVDAAIKQGFVRLDNDIVHGSVNQVFKSNSRRAAAELLAPALSGSCALLAFYDSQTRDLKVACAGDSRAVLGRRSENGKWTATPLSEDQTGGTPSEMKRLREEHPGEPNVVRNGRILGQLEPSRSFGDAFYKWSKETQEKIKRQFFGRTPHPLLKTPPYVTAEPIITTTKVDPSQGDFLVLATDGLWEMLSNEEVVGLVGQWIEEQKAAAGAGTGNKSWVRSLFGSQPTEGHHHHHH | soluble
10 | MGSDKIHHHHHHMSKVFSPFQFDNSFVRSMEGFFEPWQGARVPAPAMVCFNQQLADELGMDADAMEDSRLAAFFCGMLTAEGSEPVAMAYAGHQFGGFSPRLGDGRALLLGEVKDIHGRRRDLHLKGSGRTNFSRGGDGKAVLGPVLREYLMGEAMHALGIPTTRALAAVTTGEDIYRDGIKPGAVLARVASSHIRVGTFEYAAARGDHEGLRELVNYSLKRHYPELEDEQTPALALLNSVSRAQAKLVAKWMGVGFIHGVMNTDNVTISGETIDYGPCAFMDTYDARTVFSSIDHEGRYAYGNQPGIARWNLARFAEALLPLLAEDESEALAHAQTVLDGFAEVYTNEWLAVFAAKFGLKTAQDGDLELFMDFLTLLGELKLDFTRSFRALANSLGDTAAAGIEALTADSARFAPWLTRWHERLGREYASQSDFASDARALMQGVNPVYIPRNHLLQGALDSAEAGDMAPFERLLEVVCRPYEELAGYGAYALGAPEDFGPFRTFCGT | not soluble
11 | MGSDKIHHHHHHMTTFHDLPLEERLTLARLGTSHYSRQLSLVDNAEFGEHSLLEGWTRSHLIAHVAYNAIALCNLMHWANTGEETPMYVSPEARNEEIAYGSTLNPDALRNLHEHSVARLDVAWRETSEDAWSHEVLTAQGRTVPASETLWMRSREVWIHAVDLGAVATFGDIPEVILRTLAAEITQKWTSQGAGEGLVLLDEPSSTRYPAAPGQDEVVVSGSLAGIVRYAAGRGSDGVTSSTGEVPEPPRWL | not soluble
12 | MGSDKIHHHHHHMKVIKRLERYLSAAFSLGRIKSMSKDAQREIAELRLELGTLSQELKHTRQETERMWAWMRRHEALADDLVSVSRREAEVLKRTGQSDTALLLRMFSDLSRRIDGGESGRPDEKAPSSNGLPSSTGFEMFKDAFYHRFENQWRGAPEEISQRLKVYLPDVEAAWARAENKPIFDIGCGRGEWLGLLRQHGMEGIGFDTNAVQIKEGQAAGLDLRLGDALEALAQAEDNSLSVISAHHLIEHLPFDSVAWLTREAGRVLAPGGLLLFETPNTRNVLVGATTFYTDPTHLKPMPEQVMGVLLETAGFEPVDIRHINPHERLGEFLDRPGFDNELAQLMFGPQDLAILGIKSKDK | not soluble
13 | MFLDEHINRNFDKLNDNDLHIAHFINTHIDECKNMKIQDLAQFTHASNATIHRFTRKLGFDGYSDFKSYLKFESNKTHQLPSNSIDSFKQEIDSTFSYLERVDYQLLTEKMHTA | not soluble
14 | MSLGNRMKVCIYGAGAIGGYLGVQLAQSGAADVSLVARGAHLQAMKENGLKLLIEGEERVIKPNATDKPAELGVQDVIIICLKAHSITGAIDSMKPLLGSHTRIVTAVNGVPYWYFHKHGGNEFEGRTLESIDPGGRQWKELGPERGIGCIVYPATELEAPGVIRHVYGDKFPIGEPSGETTSDVENLSKVFEASGLKAPILDRIRDEIWLKLWGNVCFNPISALTHATLDVIASDPATRALSKAMMLEAQQIAETFGVKFRVDVERRIEGARKVGAHKTSMLQDLERGRPMEIDPLVTVVQEMGRMTNIPTPAIDSVLGLVIQRAKVAGLYEGHHHHHH | soluble
15 | MGSDKIHHHHHHLKEAILSPRFYTTDFKAIDRLEIDRNGLRDEFDWIRDEFAYDYNRTHFRRTDEFLQDFDDMPERDSFIDFLERSCTAEFSGCLLYAEMVKHLHDPTLRAIFKYMSRDEGRHAGFLNRTMADLNVALDLTVLQKRKKYTYFQPKFIFYSVYLSEKIGYSRYITIYRHLERNPQYCIHPIFKWFEQWCNDEYRHGEFFALLMRSQPEMLEGVNRRWIRFFLLAVYATMYLNDARRSNFYAALGLDWRDYDQTVIRLCNDIATQVYPETMNLDDPRFFAYMDKLVEYDRALRALESRKDPIAMAHSTRLKAAIALRLLAIYRLPTRKTTEAIRWKGLPGFPNYPGPNRPQRVVAAD | not soluble
16 | MAHHHHHHMANISPNSDGDSFVGADTAKQLSDIQKKLNDLKQRREELEEQRRRILGASDQSSSRPRSLRGPTQNRRRHSQPSQRTLPLRPPRPPISDHSIRIPNEKERQQTAQRTPYLEMKESMRRSWSRDSSLVMGSFLMEDNPRARTFTRERRFIPPPECNGIYFLGTEMELMIRNKNVAPSQRSGRRDNTPYRWNDIIDGVTPGPGAYTPLFSKVSKPSRRAQLF | not soluble
17 | MSLKYNDNFQTILRHGVEKQVALLDADIFMENGQDDVELQMRQFRNLVNSKVDAIVVAMVNGKSAAEMMRLANEAKVPLVFVNRNPEPAKWPALTAFVGSDELESGTLQMEELARRAGYKGNVVILVGDPSNKSSVMRTEDVEKVVAKYPNMKVVQKKIGNWERSQAATIVIDWVKQGVDFSIVAANNDEMAIGAIMGLEKAGKNARDYLVGGIDGTPDGLKLMAEGKMAVSVFQDAVGQANGAVDAALSMARGETLASPVIWVPFKLITPENRQQFEEGHHHHHH | soluble
18 | MSLSADKLYIDKELSWLSFNERVLQEAADKTVPLIERIRFLGIFSNNLDEFYKVRFADVKRQILINRERGGNDISKHLLSRMQSKALKLNQDFDNLYNELILEMARRRIFLVNETQLDEIQLKWVKKYFHKEVLPHVTPIMLRDDIDVMQFLKDEYAYIAVEMRSGDEFKYALIEIPTDQLPRFVMLPEQKGKRRKTIILLDNIIRLCLDEIFRGFYDYDTLNGYAMKMTRDAEYDLRHEVEYSLLEQMSEGLSQRLTALPVRFVYEREMPEAMLKFLCYKLKISHYDSLIPGGRYHNFKDFISFPNVGRDYLENKPLPPMTCADFEGYANAFDAIRAQDILLHYPYHSFEHMTELVRQASFDPKVVSIKINIYRVAKDSKLMNSLVDAVHNGKRVVVVVELQARFDEEANIEWSRILTDAGVHVIFGVPGMKIHAKLLLITRKEGDEFVRYAHIGTGNFHERTARIYTDFALLTANQELAAEVRAVFGYIENPFRPVKFNHLIVSPRNSRTQIYRLLDSEIANAKAGKKAAITLKVNNLVDKGLINKLYGASAAGVKIRMIIRGMCSLVPGVEGVSDNIEIISIIDRFLEHPRVLVVHNDGNPQVFISSADWMERNIDHRIEVMAPIRDERLKQRIIDILNIQFIDTVKARRIDKEMSNQYVERGNRRKVRSQIAIYDYLKNVEKQTRKAKGQQETNDNSSQEGHHHHHH | soluble
19 | MSNRKYFGTDGIRGRVGDAPITPDFVLKLGWAAGKVLARHGSRKIIIGKDTRISGYMLESALEAGLAAAGLSALFTGPMPTPAVAYLTRTFRAEAGIVISASHNPFYDNGIKFFSIDGTKLPDAVEEAIEAEMEKEISCVDSAELGKASRIVDAAGRYIEFCKATFPNELSLSELKIVVDCANGATYHIAPNVLRELGANVIAIGCEPNGVNINAEVGATDVRALQARVLAEKADLGIAFDGDGDRVIMVDHEGNKVDGDQIMYIIAREGLRQGQLRGGAVGTLMSNMGLELALKQLGIPFARAKVGDRYVLEKMQEKGWRIGAENSGHVILLDKTTTGDGIVAGLQVLAAMARNHMSLHDLCSGMKMFPQILVNVRYTAGSGDPLEHESVKAVTAEVEAALGNRGRVLLRKSGTEPLIRVMVEGEDEAQVTEFAHRIADAVKAV | not soluble
20 | MSSIVEHVVLFKLNDDDVDSGKINSMVNGINELVNLDQVLHLYCGSIHRLITTTASDFTHVLHSRYRSKEDLNAYAIHPDHVRVVKESESIREDIMAVDWIAEQAPE | not soluble
21 | MGNNTIGARKSTTSKFWKCRSCIASRTTESRNNSIIQQRRNFIIRTKKEIPFPKRGASKDSCGSCHNQKNLIVCHLFLFKNHKKLFF | not soluble
